In patent publication US8673594B2, “Methods for stimulating nervous system regeneration and repair by regulating arginase I and polyamine synthesis” (Research Foundation of City University of New York, priority 2000, dated 2014):
“Also recorded” adds a separate entry of the source.

How the values were obtained:
[1] = test system: cerebellar neurons on MAG-expressing CHO cells; assay: Neurite outgrowth of cerebellar neurons on MAG-expressing or control CHO cells; assay type: cell-based; settings: for block of inhibition of neurite growth by MAG after priming: neurons primed overnight with neurotrophin 200 ng/ml, then transferred to CHO monolayers
Protocol: FIG. 2: Improved Axonal Growth on MAG Induced By Elevating cAMP Levels is Transcription-Dependent. (A) Isolated cerebellar neurons at a density of 20,000 neurons per well were plated onto a monolayer of either MAG-expressing Chinese hamster ovary (CHO) cells (striped bars) or control CHO cells (black bars) and cultured overnight before being fixed and immunostained for GAP43 to visualize the neurites. The length of the longest neurite per neuron, from 180-200 neurons, was measured and results are the average length+/−SEM. Where indicated, dibutyryl cAMP (dbcA) at 1 mM in the presence or absence of the inhibitor of transcription, 5,6-dichloro-1-b-D-ribofuranosylbenzimidazole (DRB) at 5 μM, was added to each culture. (B) Cerebellar neurons (1×10^6) were plated onto poly-L-lysine and cultured overnight with brain-derived neurotrophic factor (BDNF) at 200 ng/ml, (termed priming) in the presence or absence of DRB at 5 μM, before being transferred to the CHO cell monolayers.
FIG. 6: An Ornithine Decarboxylase (ODC) Inhibitor Abrogates the Blocking Effect of dbcAMP on the Inhibition of Axonal Outgrowth by MAG and Myelin. […] The longest neurite from at least 180-200 neurons were measured. Results are shown as the mean neurite length+/−SEM.
(§1) After further incubation, neurons were fixed and immunostained for GAP43. The longest neurite from each neuron for 180-200 neurons were measured. Results are shown as the mean neurite length+/−SEM.
FIG. 8: An Inhibitor Of ODC Blocks The Priming Effects Of GDNF On The Inhibition By MAG. […] After further incubation, neurons were fixed and immunostained for GAP43. The longest neurite from each neuron for 180-200 neurons were measured. Results are shown as the mean neurite length±SEM.
Primed neurons were transferred to either MAG-expressing or control CHO cells (A) or a substrate of CNS myelin (B) for further incubation. Neurons were then fixed and immunostained for GAP43. The longest neurite from each neuron was measured for 180-200 neurons. Results are shown as the percentage of control. […]
Neurons were isolated essentially as described in Doherty at al., Nature, 343, pp. 464-66 (1990); Neuron, 5, pp. 209-19 (1990); and Kleitman at al., Culturing Nerve Cells, pp. 337-78, MIT Press, Cambridge, Mass./London, England (G. Banker and K Goslin, Eds.) (1991). Briefly, for animals up to nine days of age, the cerebellum, from two animals were removed and combined in 5 ml of 0.025% trypsin in PBS, triturated, and incubated for a further 10 minutes (min.) at 37° C. Trypsinization was stopped by addition of 5 ml DMEM containing 10% fetal calf serum (FCS) and cells were centrifuged at 800 rpm for 6 min. […] For older DRG neurons, ganglia were removed from two animals and incubated in 5 ml of Sat medium containing 0.025% trypsin and 0.15% collagenase type I (Worthington) for 30 min. at 37° C. The ganglia were triturated with a fire-polished Pasteur pipette. Trypsinization was stopped by adding 5 ml of DMEM containing 10% FCS, centrifuged at 800 rpm for 6 min, and resuspended in 2 ml of SAT (DeBellard et al., 1996). Cells were counted with a Coulter counter.
Chinese hamster ovary (CHO) cells deficient in the dihydrofolate reductase (dhfr) gene (Urlaub and Chasin, Proc. Natl, Acad, Sci. 77, pp. 4216-20 (1980)) were transfected with a MAG-cDNA expression plasmid with the dhfr gene and the L-MAG cDNA, cells with multiple copies of dbfr were selected by growing in increasing concentrations of methotrexate, and the expression of MAG by individual transfected CHO cell lines characterized as described in Mukhopadhyay et al., Neuron, 13, pp. 757-67 (1994), which is incorporated herein by reference. The MAG-expressing transfected CHO cell line) (“CHO-MAG2”) in that publication was deposited on Jun. 27, 1996 with the American Type Culture Collection (ATCC) (Rockville, Md.) according to the provisions of the Budapest Treaty, and was assigned the ATCC accession number designated: ATCC CRL-12145. […]

[2] = test system: cerebellar neurons on purified CNS myelin; assay: Neurite outgrowth of cerebellar neurons on purified CNS myelin substrate; assay type: cell-based; settings: for block of myelin-dependent inhibition in the presence of a transcriptional inhibitor: dbcAMP 1 mM or BDNF 200 ng/ml priming, with DRB 5 μM; for block of inhibition by myelin after priming: neurons primed with neurotrophin
Protocol: Isolated cerebellar neurons at a density of 20,000 neurons per well were plated onto a substrate of purified CNS myelin and cultured overnight before being fixed and immunostained for GAP43. The length of the longest neurite per neuron from 180-200 neurons was measured and results are the average length+/−SEM. Where indicated, dibutyryl cAMP (dbcA) at 1 mM in the presence or absence of the inhibitor of transcription, 5,6-dichloro-1-b-D-ribofuranosylbenzimidazole (DRB) at 5 μM, was added to each culture. (B) Cerebellar neurons (1×10^6) were plated onto poly-L-lysine and cultured overnight with brain-derived neurotrophic factor (BDNF) at 200 ng/ml, (termed priming) in the presence or absence of DRB at 5 μM, before being transferred to the CNS myelin substrate.
The longest neurite from at least 180-200 neurons were measured. Results are shown as the mean neurite length+/−SEM.
as §1
Primed neurons were transferred to either MAG-expressing or control CHO cells (A) or a substrate of CNS myelin (B) for further incubation. Neurons were then fixed and immunostained for GAP43. The longest neurite from each neuron was measured for 180-200 neurons.
Trypsinization was stopped by addition of 5 ml DMEM containing 10% fetal calf serum (FCS) and cells were centrifuged at 800 rpm for 6 min. […] The ganglia were triturated with a fire-polished Pasteur pipette. […] Cells were counted with a Coulter counter.
The neurite outgrowth assay was carried out by adding 5×10^4 neurons to the immobilized myelin substrate or 2×10^4 neurons to the CHO cell monolayers. Briefly, confluent monolayers of control and MAG-expressing CHO cells were established over a 24-hour (h) period in individual chambers of an 8-well tissue culture slide (Lab-Tek). […] Culture medium was SATO containing 2% FCS.
GAP43 antibody was detected by staining with Texas Red and arginase antibody was detected with anti-biotin secondary antibody followed by Texas Red-conjugated streptavidin.
After periods of time as indicated, the co-cultures were fixed for 30 min with 4% paraformaldehyde and permeabilized with ice-cold methanol for 2 min. […] After three more washes, the slides were mounted in Permfluor (Baxter) and viewed with a Zeiss fluorescent microscope. The length of the longest neurite for each GAP43-positive neuron was determined using the Biological Detection System image analysis program (Pittsburgh).

| Molecule | block of inhibition of neurite growth by MAG ([1]; agent added directly to the co-culture (dbcAMP 1 mM), overnight) | block of inhibition of neurite growth by myelin ([2]; dbcAMP 1 mM added directly to the culture) | block of myelin-dependent inhibition in the presence of a transcriptional inhibitor [2] | block of inhibition of neurite growth by MAG after priming [1] | block of inhibition by myelin after priming [2] |
| --- | --- | --- | --- | --- | --- |
| CCCC(=O)Nc1ncnc2c1ncn2[C@@H]1O[C@@H]2COP(=O)(O)O[C@H]2[C@H]1OC(=O)CCC [dbcAMP, dibutyryl cAMP] | blocks inhibition of neuronal growth by MAG; also recorded: blocks the inhibition of neurite growth by MAG | blocks the inhibition of neurite growth | completely lost |  |  |
| BDNF: Brain-derived neurotrophic factor, Trk-family neurotrophin (protein, UniProt P23560 19-247, looked up) Neurotrophic factor BDNF …: APMKEANIRGQGGLAYPGVRTHGTLESVNGPKAGSRGLTSLADTFEHVIEELLDEDQKVRPNEENNKDADLYTSRVMLSSQVPLEPPLLFLLEEYKNYLDAANMSMRVRRHSDPARRGELSVCDSISEWVTAADKKTAVDMSGGTVTVLEKVPVSKGQLKQYFYETKCNPMGYTKEGCRGIDKRHWNSQCRTTQSYVRALTMDSKKRIGWRFIRIDTSCVCTLTIKRGR |  |  | completely lost | blocks inhibition of neuronal growth by MAG; also recorded: blocked the inhibition by MAG | overcomes inhibition of regeneration by MAG and myelin |
| GDNF: glial cell line-derived neurotrophic factor (protein, UniProt P39905 78-211, looked up) Glial cell line-derived …: SPDKQMAVLPRRERNRQAAAANPENSRGKGRRGQRGKNRGCVLTAIHLNVTDLGLGYETKEELIFRYCSGSCDAAETTYDKILKNLSRNRRLVSDKVGQACCRPIAFDDDLSFLDDNLVYHILRKHSAKRCGCI |  |  |  | overcomes inhibition of regeneration by MAG and myelin | overcomes inhibition of regeneration by MAG and myelin |
